{
  "source": "patent US20120156198A1",
  "about": "(Hoffmann-La Roche, published 2012)",
  "binders": {"B1": {"name": "Mab 1G12 (antibody, V domains shown)", "VH": "QVQLQQPGAELVKPGASVRMSCKTSDYTFTSNWMHWVKQRPGQGLEWIGTIDPSDSYTYYNQKFKGRATLTVDTSSSTAYMQLSSLTSEDSAVYYCTTSGDYDADRYFDVWGAGTTVTVSS", "VL": "DIVLTQSPASLGVSLGQRATISCRASKSVSTSGDSYMHWYQQKPGQSPKLLIYLASNLESGVPARFSGSGSGTDFTLNIHPVEEEDAATYYCQQSRELPLSFGAGTKLELK", "notes": "Monoclonal antibody from immunized NMRI mice; detected with anti-mouse IgG1-PE / anti-mouse IgG; also called F20.1G12; monoclonal antibody 1G12"}, "B2": {"name": "Mab 2D11 (antibody, V domains shown)", "VH": "B1 VH with R19K, T24A, R67K, Q82H", "VL": "B1 VL", "notes": "Monoclonal antibody from immunized NMRI mice; detected with anti-mouse IgG1-PE / anti-mouse IgG; also called F20.2D11"}},
  "key": {"[1]": {"target": "T1, human IL-18Rα (IL-18R1) on human cells (KG-1 cells, PBMC, TH1-cultured T cells, whole blood) (human, UniProt Q13478 19-541)", "T1 sequence": "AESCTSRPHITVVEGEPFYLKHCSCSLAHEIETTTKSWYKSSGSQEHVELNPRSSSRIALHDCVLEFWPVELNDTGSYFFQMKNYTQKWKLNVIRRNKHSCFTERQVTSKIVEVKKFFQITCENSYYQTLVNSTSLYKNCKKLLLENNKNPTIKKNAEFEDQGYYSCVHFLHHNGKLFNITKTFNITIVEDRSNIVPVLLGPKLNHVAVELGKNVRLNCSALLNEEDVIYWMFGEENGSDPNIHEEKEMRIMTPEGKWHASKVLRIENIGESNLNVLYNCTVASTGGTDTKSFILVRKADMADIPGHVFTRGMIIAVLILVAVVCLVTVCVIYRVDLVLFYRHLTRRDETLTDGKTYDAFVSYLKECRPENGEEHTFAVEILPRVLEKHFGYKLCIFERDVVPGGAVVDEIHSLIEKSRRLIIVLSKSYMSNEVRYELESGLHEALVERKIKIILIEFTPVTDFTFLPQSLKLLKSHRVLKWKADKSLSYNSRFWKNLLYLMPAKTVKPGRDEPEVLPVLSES", "experiment": "cell-based or functional assay"}, "[2]": {"target": "T1, human IL-18Rα (IL-18R1) on human cells …", "experiment": "cell-based or functional assay", "remark": "listed apart in the source"}, "[3]": {"target": "T2, human IL-18Rα/IL-18Rβ on transfected HEK293 cells (human, UniProt O95256 20-599)", "T2 construct": "whole, on cells; also called human IL-18Ralpha+IL-18Rβ subunits", "T2 sequence 1": "T1 sequence", "T2 sequence 2": "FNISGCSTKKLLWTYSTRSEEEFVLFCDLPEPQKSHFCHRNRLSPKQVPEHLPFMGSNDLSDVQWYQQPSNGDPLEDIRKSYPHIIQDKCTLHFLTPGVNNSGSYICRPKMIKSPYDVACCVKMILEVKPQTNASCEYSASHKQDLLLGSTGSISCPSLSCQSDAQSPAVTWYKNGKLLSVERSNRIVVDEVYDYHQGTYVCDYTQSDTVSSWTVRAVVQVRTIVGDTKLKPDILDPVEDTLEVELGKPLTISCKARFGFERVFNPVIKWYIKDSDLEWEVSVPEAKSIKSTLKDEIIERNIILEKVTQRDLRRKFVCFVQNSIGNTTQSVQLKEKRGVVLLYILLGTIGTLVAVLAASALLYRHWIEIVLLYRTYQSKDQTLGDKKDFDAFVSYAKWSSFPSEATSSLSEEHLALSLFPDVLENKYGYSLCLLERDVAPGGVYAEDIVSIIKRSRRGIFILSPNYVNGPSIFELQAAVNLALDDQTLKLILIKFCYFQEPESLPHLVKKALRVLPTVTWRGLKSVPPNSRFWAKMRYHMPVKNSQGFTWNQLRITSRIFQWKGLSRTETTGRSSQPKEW", "experiment": "FACS on transfected HEK293 cells, antibody 1 µg/ml", "description": "10⁶ HEK293 cells were transfected with a plasmid expressing human IL-18Ralpha+IL-18Rβ. Transfected cells were incubated for 1 day. 1×10⁵ cells were incubated on ice in PBS-buffer+2% FCS and stained with an IL-18Rα antibody (1 μg/ml). As secondary antibody anti-mouse IgG1-PE from R&D Systems (F0102B) was added in 1:20 dilution and as isotype control mouse IgG1 from BD Pharmingen (557273) was used at a concentration of 1 μg/ml."}, "[4]": {"target": "T3, recombinant human IL-18Rα Fc chimera (R&D Systems, Cat. No. 816-LR) (human, UniProt Q13478 19-329)", "T3 construct": "Bought protein; also called hIL-18Rα (hFc-chimera R&D-Systems 816-LR); recombinant human IL-18Rα-Fc fusion protein; not shown: human Fc of the commercial chimera", "T3 sequence": "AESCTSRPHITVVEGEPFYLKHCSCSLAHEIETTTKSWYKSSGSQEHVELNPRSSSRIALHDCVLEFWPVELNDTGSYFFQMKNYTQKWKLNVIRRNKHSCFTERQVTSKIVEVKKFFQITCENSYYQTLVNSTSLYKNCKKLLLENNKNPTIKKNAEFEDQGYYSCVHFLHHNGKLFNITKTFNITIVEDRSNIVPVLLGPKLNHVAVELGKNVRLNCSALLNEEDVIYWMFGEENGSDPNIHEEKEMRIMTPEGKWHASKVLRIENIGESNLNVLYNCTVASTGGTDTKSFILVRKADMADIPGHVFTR", "experiment": "SPR (BIACORE), 37°C, antibody captured, hIL-18Rα hFc chimera in solution", "description": "Coupling: amine coupling Buffer: 1×PBS (10×PBS, Ambion cat. AM9625), pH 7.4, 37° C. […] Association was measured by a hIL-18Rα-injection of 1.5 minutes at 37° C.; dissociation was measured by washing the chip surface with buffer for 10 minutes at 37° C. For calculation of apparent KD and other kinetic parameters the Langmuir 1:1 model was used."}},
  "note": "Where a chain is given by its changes, count along the chain named.",
  "data": [
    {"binder": "B1", "values": [
      {"measurement": "IL-18 induced IFNγ production by human KG-1 cells, IC50 [pM]", "setting": "[1]", "value": 27, "unit": "pM"},
      {"measurement": "IL-18 induced IFNγ production in human PBMC, IC50 [ng/ml]", "setting": "[2]", "value": 0.76, "unit": "ng/mL"},
      {"measurement": "binding result", "setting": "[3]", "value": "binds"},
      {"measurement": "koff", "setting": "[4]", "value": 0.0002, "unit": "s⁻¹"},
      {"measurement": "kon", "setting": "[4]", "value": "8.2e+06", "unit": "M⁻¹ s⁻¹"},
      {"measurement": "t1/2", "setting": "[4]", "value": 0.967, "unit": "h"}
    ]},
    {"binder": "B2", "values": [
      {"measurement": "IL-18 induced IFNγ production by human KG-1 cells, IC50 [pM]", "setting": "[1]", "value": 43, "unit": "pM"},
      {"measurement": "IL-18 induced IFNγ production in human PBMC, IC50 [ng/ml]", "setting": "[2]", "value": 1.71, "unit": "ng/mL"},
      {"measurement": "binding result", "setting": "[3]", "value": "binds"},
      {"measurement": "koff", "setting": "[4]", "value": 0.00019, "unit": "s⁻¹"},
      {"measurement": "kon", "setting": "[4]", "value": "7e+06", "unit": "M⁻¹ s⁻¹"},
      {"measurement": "t1/2", "setting": "[4]", "value": 1.03, "unit": "h"}
    ]}
  ]
}
